In paper PMC11194501 one finds Kd, stoichiometry N and reduction of tubulin binding against Cep57S data, which are given here for three substances.

Assay [1] has as its target MBP-Cep63N (fusion of MBP and the N-terminal fragment of Cep63) (human) (UniProt Q96MT8). Put plainly: ITC.
The target in assay [2] is Cep57N (Cep57 residues 56 to 251) (human) (UniProt Q86XR8). Put plainly: ITC. A general note: Isothermal titration calorimetry measures the heat released or taken up as one component is titrated into another.
In assay [3] the target is Cep57S-KR (Cep57S with six Lys and Arg residues of the K/R motif replaced by Ala) (human) (UniProt Q86XR8). Briefly: pull-down; His-tagged Cep57S held on a Ni-NTA spin column, 0.1 mg α/β-tubulin added, 4 °C; 1X PBS pH 8.0, 1 mM 2-mercaptoethanol, 20 mM imidazole, 0.1% Triton X100, 10% glycerol; eluted with 400 mM imidazole, SDS-PAGE.

For orientation: Kd means the equilibrium constant for the complex coming apart. A high value points to weaker binding. In assay [1], “Cep57N (Cep57 residues 56 to 251) (from UniProt Q86XR8 56-251) (domain or fragment)” showed a Kd of 600 nM. In other words, the sub-micromolar range.
The stoichiometry N is the number of molecules, sites or subunits per partner or assembly. “MBP-Cep63N (fusion of MBP and the N-terminal fragment of Cep63) (from UniProt Q96MT8-2 1-541) (domain or fragment)”: in assay [2], the Kd turned out to be 500 nM and the stoichiometry N came out at 0.6.
For the substance “α/β-tubulin (from UniProt P02550 1-451; P02554 1-445) (complex)”, in assay [3], the reduction of tubulin binding against Cep57S is 65%.
